Key:
[1] = target: T1, soluble human FcRn (complex of FcRn and beta2-microglobulin) (human, UniProt P55899 24-290; P61769 21-119); assay: Biacore 3000, antibody captured, human FcRn as analyte, pH 6.0, steady state affinity
T1 construct: Expressed constructs contain the signal regions (FcRn Met1-Leu290; beta2-microglobulin Met1-Met119); Secreted from HEK293H cells and purified; also called hFcRn
Protocol: (§1) The binding to human FcRn was assessed using Biacore 3000. An antibody was bound to Protein L or rabbit anti-human IgG Kappa chain antibody immobilized onto a sensor chip, human FcRn was added as an analyte for interaction with the antibody, and the affinity (KD) was calculated from the amount of bound human FcRn. Specifically, Protein L or rabbit anti-human IgG Kappa chain antibody was immobilized onto sensor chip CM5 (BIACORE) by the amine coupling method using 50 mM Na-phosphate buffer (pH 6.0) containing 150 mM NaCl as the running buffer. […] Human FcRn was then injected and the binding of the human FcRn to antibody was assessed.
The affinity was computed using BIAevaluation Software. The obtained sensorgram was used to calculate the amount of hFcRn bound to the antibody immediately before the end of human FcRn injection. The affinity of the antibody for human FcRn was calculated by fitting with the steady state affinity method.
The resulting antibodies were assessed for their human FcRn-binding activity by the method described above.

[2] = target: T1, soluble human FcRn (complex of FcRn and …); assay: Biacore T100, human FcRn immobilized on CM4 chip, antibody as analyte (divalent avidity), pH 6.0, 25 C, KD from ka and kd
Protocol: Then, the present inventors assessed in this Example the binding of IgG to FcRn with divalent avidity by immobilizing human FcRn onto a sensor chip and injecting IgG as an analyte to more closely mimic the in vivo case.
First, about 2,000 RU of human FcRn was immobilized onto sensor chip CM4 (GE Healthcare) by the amino coupling method. Reagents used in the amino coupling were: ethanol amine (GE Healthcare), 50 mM NaOH solution (GE Healthcare), NHS (GE Healthcare), EDC (GE Healthcare). HBS-EP+ solution (10×HBS-EP+ solution (GE Healthcare) was used after dilution) was used as the mobile phase. Then, antibodies were each injected as an analyte into the sensor chip immobilized with human FcRn for three minutes to observe the binding of FcRn to the antibodies. After this observation, the mobile phase was injected for five minutes to assess the dissociation of each antibody variants from FcRn. All measurements were carried out at 25° C. The mobile phase used was 10 mM Cit (pH 6.0)/150 mM NaCl/0.05% Tween20.
From the obtained sensorgrams, the association rate constant ka (1/Ms) and dissociation rate constant kd (1/s) were calculated for the three minutes of binding phase using Biacore T100 Evaluation Software (GE Healthcare). The dissociation constant KD (M) was determined based on these values.

[3] = target: T1, soluble human FcRn (complex of FcRn and …); assay: Biacore 3000, antibody captured, human FcRn as analyte, pH 6.0
Protocol: as §1
(§2) The obtained sensorgram was used to calculate the amount of hFcRn bound to the antibody immediately before the end of human FcRn injection. The affinity of the antibody for human FcRn was calculated by fitting with the steady state affinity method.

[4] = target: T1, soluble human FcRn (complex of FcRn and …); assay: Biacore 3000, antibody captured on Protein L or rabbit anti-human kappa antibody, human FcRn as analyte, pH 6.0, steady state affinity
Protocol: as §1, §2

T1 sequence (P55899 24-290 limits assumed, chain 1 of 2): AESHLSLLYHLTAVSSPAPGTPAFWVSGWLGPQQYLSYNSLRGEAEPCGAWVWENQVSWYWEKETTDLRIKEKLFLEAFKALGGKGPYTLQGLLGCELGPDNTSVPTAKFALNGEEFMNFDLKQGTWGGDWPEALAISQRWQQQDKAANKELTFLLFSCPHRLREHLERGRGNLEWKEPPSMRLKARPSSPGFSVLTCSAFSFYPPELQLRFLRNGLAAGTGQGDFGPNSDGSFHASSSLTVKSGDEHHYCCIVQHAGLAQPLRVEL
T1 sequence (P61769 21-119 limits assumed, chain 2 of 2): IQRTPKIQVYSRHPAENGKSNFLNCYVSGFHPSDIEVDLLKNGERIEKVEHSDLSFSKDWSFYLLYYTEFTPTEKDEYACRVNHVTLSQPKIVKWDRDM

B1: IL31R H0-IgG1/L0-k0 (antibody)
heavy: not shown
light: DIQMTQSPSSLSASVGDRVTITCRTSENIYSFLAWYQQKPGKAPKLLIYNAKTLAKGVPSRFSGSGSGTDFTLTISSLQPEDFATYYCQHHYESPLTFGGGTKVEIKRTVAAPSVFIFPPSDEQLKSGTASVVCLLNNFYPREAKVQWKVDNALQSGNSQESVTEQDSKDSTYSLSSTLTLSKADYEKHKVYACEVTHQGLSSPVTKSFNRGEC
notes: also called anti-IL-31 receptor antibody, IgG1-k0
Question: With B1 as the binder, how does the Kd [1] read?
Answer: The Kd was 1070 nM.

B2: IL31R H0-M58/L0-k0 (antibody)
heavy: QVQLVQSGAEVKKPGASVKVSCKASGYTFTGYIMNWVRQAPGQGLEWMGLINPYNGGTSYNQKFKGRVTITADESTSTAYMELSSLRSEDTAVYYCARDGYDDGPYTMDYWGQGTLVTVSSASTKGPSVFPLAPSSKSTSGGTAALGCLVKDYFPEPVTVSWNSGALTSGVHTFPAVLQSSGLYSLSSVVTVPSSNFGTQTYTCNVDHKPSNTKVDKTVERKSCVECPPCPAPPVAGPSVFLFPPKPKDTLMISRTPEVTCVVVDVSQEDPEVQFNWYVDGVEVHNAKTKPREEQFNSTFRVVSVLTVVHQDWLNGKEYKCKVSNKGLPAPIEKTISKTKGQPREPQVYTLPPSQEEMTKNQVSLTCLVKGFYPSDIAVEWESNGQPENNYKTTPPMLDSDGSFFLYSKLTVDKSRWQEGNVFSCSVMHEALHNHYTQKSLSLSP
light: DIQMTQSPSSLSASVGDRVTITCRTSENIYSFLAWYQQKPGKAPKLLIYNAKTLAKGVPSRFSGSGSGTDFTLTISSLQPEDFATYYCQHHYESPLTFGGGTKVEIKRTVAAPSVFIFPPSDEQLKSGTASVVCLLNNFYPREAKVQWKVDNALQSGNSQESVTEQDSKDSTYSLSSTLTLSKADYEKHKVYACEVTHQGLSSPVTKSFNRGEC
notes: also called anti-IL-31 receptor antibody, M58-k0
Question: Which Kd [1] does the source give for B2 here?
Answer: The Kd was 910 nM.

B3: IL6R H0-M58/L0-k0 (antibody, IgG2)
heavy: QVQLQESGPGLVRPSQTLSLTCTVSGYSITSDHAWSWVRQPPGRGLEWIGYISYSGITTYNPSLKSRVTMLRDTSKNQFSLRLSSVTAADTAVYYCARSLARTTAMDYWGQGSLVTVSSASTKGPSVFPLAPSSKSTSGGTAALGCLVKDYFPEPVTVSWNSGALTSGVHTFPAVLQSSGLYSLSSVVTVPSSNFGTQTYTCNVDHKPSNTKVDKTVERKSCVECPPCPAPPVAGPSVFLFPPKPKDTLMISRTPEVTCVVVDVSQEDPEVQFNWYVDGVEVHNAKTKPREEQFNSTFRVVSVLTVVHQDWLNGKEYKCKVSNKGLPAPIEKTISKTKGQPREPQVYTLPPSQEEMTKNQVSLTCLVKGFYPSDIAVEWESNGQPENNYKTTPPMLDSDGSFFLYSKLTVDKSRWQEGNVFSCSVMHEALHNHYTQKSLSLSP
light: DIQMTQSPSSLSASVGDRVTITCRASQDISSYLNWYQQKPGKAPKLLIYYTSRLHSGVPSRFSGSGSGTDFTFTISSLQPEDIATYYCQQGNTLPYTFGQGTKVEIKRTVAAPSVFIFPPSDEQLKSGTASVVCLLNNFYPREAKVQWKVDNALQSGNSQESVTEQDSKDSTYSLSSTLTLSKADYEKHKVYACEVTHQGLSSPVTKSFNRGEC
notes: L-chain constant region k0; also called M58-k0 (anti-IL-6 receptor antibody)
Question: How did the Kd [2] turn out when B3 was run?
Answer: Its Kd is 3.85 nM.

Question: And the “fold increase of binding compared to IL6R H0-IgG1/L0-k0” value [3]?
Answer: Its value is about 1.4 times.

Question: What about the Kd [1] of the same binder?
Answer: Its Kd is 1030 nM.

Question: And the Kd [4]?
Answer: The Kd was 1030 nM.

B4: IL6R H0-M66/L0-k3 (antibody)
heavy: QVQLQESGPGLVRPSQTLSLTCTVSGYSITSDHAWSWVRQPPGRGLEWIGYISYSGITTYNPSLKSRVTMLRDTSKNQFSLRLSSVTAADTAVYYCARSLARTTAMDYWGQGSLVTVSSASTKGPSVFPLAPSSKSTSGGTAALGCLVKDYFPEPVTVSWNSGALTSGVHTFPAVLQSSGLYSLSSVVTVPSSNFGTQTYTCNVDHKPSNTKVDKTVERKCSVECPPCPAPPVAGPSVFLFPPKPKDTLMISRTPEVTCVVVDVSQEDPEVQFNWYVDGVEVHNAKTKPREEQFNSTFRVVSVLTVVHQDWLNGKEYKCKVSNKGLPAPIEKTISKTKGQPREPQVYTLPPSQEEMTKNQVSLTCLVKGFYPSDIAVEWESNGQPENNYKTTPPMLDSDGSFFLYSKLTVDKSRWQEGNVFSCSVMHEALHNHYTQKSLSLSP
light: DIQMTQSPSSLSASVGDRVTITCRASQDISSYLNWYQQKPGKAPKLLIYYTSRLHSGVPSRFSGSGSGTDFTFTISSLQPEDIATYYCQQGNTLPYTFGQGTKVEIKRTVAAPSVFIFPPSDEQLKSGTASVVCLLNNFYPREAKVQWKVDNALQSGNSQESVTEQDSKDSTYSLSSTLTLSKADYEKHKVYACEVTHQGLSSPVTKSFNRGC
notes: also called M66-k3
Question: Which Kd [2] does the source give for B4 here?
Answer: The Kd was 3.26 nM.

B5: IL6R H0-M66/L0-k0 (antibody)
heavy: QVQLQESGPGLVRPSQTLSLTCTVSGYSITSDHAWSWVRQPPGRGLEWIGYISYSGITTYNPSLKSRVTMLRDTSKNQFSLRLSSVTAADTAVYYCARSLARTTAMDYWGQGSLVTVSSASTKGPSVFPLAPSSKSTSGGTAALGCLVKDYFPEPVTVSWNSGALTSGVHTFPAVLQSSGLYSLSSVVTVPSSNFGTQTYTCNVDHKPSNTKVDKTVERKCSVECPPCPAPPVAGPSVFLFPPKPKDTLMISRTPEVTCVVVDVSQEDPEVQFNWYVDGVEVHNAKTKPREEQFNSTFRVVSVLTVVHQDWLNGKEYKCKVSNKGLPAPIEKTISKTKGQPREPQVYTLPPSQEEMTKNQVSLTCLVKGFYPSDIAVEWESNGQPENNYKTTPPMLDSDGSFFLYSKLTVDKSRWQEGNVFSCSVMHEALHNHYTQKSLSLSP
light: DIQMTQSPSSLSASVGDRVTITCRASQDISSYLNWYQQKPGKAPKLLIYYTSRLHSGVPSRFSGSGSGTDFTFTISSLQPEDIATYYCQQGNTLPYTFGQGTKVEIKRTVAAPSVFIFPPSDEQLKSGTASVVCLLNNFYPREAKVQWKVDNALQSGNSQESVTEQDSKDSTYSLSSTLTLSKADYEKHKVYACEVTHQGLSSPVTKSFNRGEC
notes: L-chain constant region k0; also called M66-k0
Question: Which Kd [2] does the source give for B5 here?
Answer: The Kd was 3.54 nM.

Source: US20190211081A1 (Chugai, published 2019)
